According to US20060269548A1 (published 2006):

Columns and labels:
[1] = target: T1, human VEGFR-2 immunoglobulin fusion protein (chimeric receptor protein immobilized on the biosensor chip) (human, UniProt P35968 20-764, limits assumed); assay: BIAcore 2000 biosensor, receptor-Ig on CM5 chip, ligand injected, 1:1 Langmuir global fit
T1 construct: also called hVEGFR-2; not shown: immunoglobulin fusion part

human VEGFR-3-Ig = target: T2, human VEGFR-3-Ig (human, UniProt P35916 25-775); assay: as above
T2 construct: extracellular domain; also called hVEGFR-3; soluble VEGFR-3; not shown: immunoglobulin fusion part
T2 sequence (looked up): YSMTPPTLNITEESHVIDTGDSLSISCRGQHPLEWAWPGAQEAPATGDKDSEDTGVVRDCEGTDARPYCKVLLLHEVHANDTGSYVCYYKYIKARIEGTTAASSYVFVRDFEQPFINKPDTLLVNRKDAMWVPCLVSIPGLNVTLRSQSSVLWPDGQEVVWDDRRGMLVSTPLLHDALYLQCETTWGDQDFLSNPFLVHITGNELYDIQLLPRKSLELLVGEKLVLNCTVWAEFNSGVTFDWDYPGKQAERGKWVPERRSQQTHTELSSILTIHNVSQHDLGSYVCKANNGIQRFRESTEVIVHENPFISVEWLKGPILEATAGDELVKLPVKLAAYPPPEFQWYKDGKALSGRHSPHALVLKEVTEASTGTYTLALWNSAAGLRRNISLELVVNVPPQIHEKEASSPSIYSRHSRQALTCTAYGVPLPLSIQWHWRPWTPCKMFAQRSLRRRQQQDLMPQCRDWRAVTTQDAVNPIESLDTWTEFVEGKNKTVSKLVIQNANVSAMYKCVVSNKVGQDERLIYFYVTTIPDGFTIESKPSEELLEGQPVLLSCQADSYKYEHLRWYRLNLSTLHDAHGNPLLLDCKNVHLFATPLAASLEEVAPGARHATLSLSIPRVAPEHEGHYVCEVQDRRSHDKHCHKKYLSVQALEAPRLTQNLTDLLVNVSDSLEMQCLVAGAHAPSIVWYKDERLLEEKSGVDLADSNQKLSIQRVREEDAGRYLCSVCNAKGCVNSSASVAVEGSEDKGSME

[2] = target: T1, human VEGFR-2 immunoglobulin fusion …; assay: BIAcore 2000 biosensor, receptor-Ig amine-coupled to CM5 chip, ligand injected

T1 sequence (P35968 20-764 limits assumed, change not shown): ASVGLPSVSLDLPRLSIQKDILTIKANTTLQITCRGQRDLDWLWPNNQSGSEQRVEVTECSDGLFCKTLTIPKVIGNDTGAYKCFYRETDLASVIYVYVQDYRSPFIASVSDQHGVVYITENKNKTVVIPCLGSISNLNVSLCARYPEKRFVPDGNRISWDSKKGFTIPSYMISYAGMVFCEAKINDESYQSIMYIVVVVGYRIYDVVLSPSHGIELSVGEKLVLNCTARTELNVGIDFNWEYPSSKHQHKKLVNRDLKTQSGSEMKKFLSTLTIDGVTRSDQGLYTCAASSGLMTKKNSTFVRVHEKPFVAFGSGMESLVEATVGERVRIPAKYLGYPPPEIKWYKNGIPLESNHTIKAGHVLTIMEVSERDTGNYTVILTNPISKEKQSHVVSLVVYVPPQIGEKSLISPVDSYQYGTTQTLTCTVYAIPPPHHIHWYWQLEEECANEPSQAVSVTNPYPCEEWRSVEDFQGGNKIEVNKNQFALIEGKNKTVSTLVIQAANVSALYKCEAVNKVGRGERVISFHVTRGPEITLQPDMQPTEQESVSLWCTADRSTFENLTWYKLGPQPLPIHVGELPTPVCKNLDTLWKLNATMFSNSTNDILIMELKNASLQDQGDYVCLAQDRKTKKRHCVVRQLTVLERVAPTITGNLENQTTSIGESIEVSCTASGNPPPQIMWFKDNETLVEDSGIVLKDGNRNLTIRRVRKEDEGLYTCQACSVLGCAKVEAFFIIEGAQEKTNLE

B1: recombinant human VEGF-C (Thr103 to Leu215) (ligand, UniProt P49767 103-215, looked up)
chain: TEETIKFAAAHYNTEILKSIDNEWRKTQCMPREVCIDVGKEFGVATNTFFKPPCVSVYRCGGCCNSEGLQCMNTSTSYLSKTLFEITVPLSQGPKPVTISFANHTSCRCMSKL
notes: range 103-215; Produced and purified as in Joukov et al. 1997; also called hVEGF-C; wild type VEGF-C
Binder B1 has a Kd [1] of 22 nM, a koff [1] of 0.00123 s⁻¹ and a kon [1] of 55000 M⁻¹ s⁻¹. It also gave a Kd (human VEGFR-3-Ig) of 4.4 nM, a koff (human VEGFR-3-Ig) of 0.000605 s⁻¹ and a kon (human VEGFR-3-Ig) of 136000 M⁻¹ s⁻¹.

B2: recombinant human VEGF-C156S (Thr103 to Ile225) (ligand)
chain: TEETIKFAAAHYNTEILKSIDNEWRKTQCMPREVCIDVGKEFGVATNTFFKPPSVSVYRCGGCCNSEGLQCMNTSTSYLSKTLFEITVPLSQGPKPVTISFANHTSCRCMSKLDVYRQVHSII
notes: also called hVEGF-C156S; VEGF-C56S
B2 was tested, and the binding result [2] was “no binding”, the Kd (human VEGFR-3-Ig) was 115 nM and the koff (human VEGFR-3-Ig) was 0.0004 s⁻¹. The kon (human VEGFR-3-Ig) was 3500 M⁻¹ s⁻¹.
